Measured values: publication PMC6003225 (Molecular Biology of the Cell, 2018)

Molecular target: T1, Danio rerio CPAP G-box domain (DrCPAP_(G-box), amino acids 943–1121) (Danio rerio, UniProt E7FCY1 943-1121)
T1 sequence (looked up): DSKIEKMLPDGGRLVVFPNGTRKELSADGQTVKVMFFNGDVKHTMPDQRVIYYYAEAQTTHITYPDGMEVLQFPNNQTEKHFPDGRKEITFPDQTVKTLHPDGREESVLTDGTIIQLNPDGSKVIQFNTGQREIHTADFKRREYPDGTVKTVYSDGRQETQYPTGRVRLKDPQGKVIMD
Experiment: ITC

B1: C. elegans SAS-5 fragment corresponding to amino acids 2–122 (SAS-5N) (domain or fragment, UniProt Q20010 2-122, looked up)
chain: NNYDDLPCSIYFKKPTVQEFVDQPRVFEDSEVPAFQEVLQLPQERTKPPVPSTQPIVAAVEVAKKKSCLSAPKPRKEPPSHPALRQKTVAFGKTVNVSQTVEGTSRNSKKVLASTMSAQNT
B1 was tested, and the Kd was 34 ± 4 µM.
